# Test results taken from the DeepSol protein solubility set.
# Assay: soluble on expression in E. coli; label from the status in PepcDB or PDB records
row,Sequence,soluble on expression in E. coli
1,MIIREQRVEKFNAGKAVYQSVSKTESLARTAKDRKICANLEEAIRRSGLKDGMTVSFHHAFRAGDCVVNMVMNKIAEMGFKNLTLASSSLIDSHYPLIEHIKNGVVTKIYSSGLRGQLADEISRGLLAEPVNIHSHGGRVHLIKAGELKIDVAFLGVPCCDKFGNANGFSGKSKCGSLGYARIDAEYADKVVLLTEQFDEYPLNPISIGQDNVDLIVQVDEVGDPEKIGGGATRMTTNPRELLIARKCAQVIFASGYFKDGFSLQTGTGGASLAVTRFLEDKMRREQITAGFALGGITSSIVALHEAGLIKKLIDVQSFDKDAAESLARNPNHIEVSANQYANYSSKGPSVECLDIVVLSALEIDTQFNVNVLTGSDGVIRGASGGHSDTAASAQVAIIVAPLVRGRIPTVVEQVITCVTPGENIDILVTDHGVAVNPKRLDLVDKLTAAGLELFTIEQLCARAYSITGKSKEIEFKDKPVAVVRYRDGSVIDTVYQIKELEHHHHHH,soluble
2,MSLNRNNPLEVLGHVSWLWASSPLHRNWPVSLFAINVLPAIRANQYALLTRDNYPVAYCSWANLSLENEIKYLNDVTSLVAEDWTSGDRKWFIVWIAPFGDNGALYKYMRKKFPDELFRAIRVDPKTHVGKVSEFHGGKIDKQLANKIFKQYHHELITEVKNKSDFNFSLTGEGHHHHHH,soluble
3,PKQVGNAQHLYDNYDLVPAMIAEVNPRDMVVMALVNTNVDPTLPPRWALATRNITAIPGIEGDTRKVGTRIPAVAVTGQRSVGNQDSWDQISPMPIAWATPDSSVIARAESTIPSEQWTTLSKNLNKLDQVRETKFDLLEL,soluble
4,SMLGPEGGEGFVVKLRGLPWSCSVEDVQNFLSDCTIHDGAAGVHFIYTREGRQSGEAFVELGSEDDVKMALKKDRESMGHRYIEVFKSHRTEMDWVLKHSGPNSADSANDGFVRLRGLPFGCTKEEIVQFFSGLEIVPNGITLPVDPEGKITGEAFVQFASQELAEKALGKHKERIGHRYIEVFKSSQEEVRSYSDPPLKFMSVQRPGPYDRPGTARRYIGIVKQAGLERMRPGAYSTGYGGYEEYSGLSDGYGFTTDLFGRDLSYCLSGMYDHRYGDSEFTVQSTTGHCVHMRGLPYKATENDIYNFFSPLNPVRVHIEIGPDGRVTGEADVEFATHEEAVAAMSKDRANMQHRYIELFLNSTTGASNGAYSSQVMQGMGVSAAQATYSGLESQSVSGCYGAGYSGQNSMGGYD,soluble
5,MQQNIQYTYSSDPRSGGNQNQQLHGISQFQQNSYQPTTYSNSNANNFHSSNSATFIPNSVTQTPQRRMGEEKSLVNMLDAYFIDSTTPSTSTSWNNQQPVQMSSIQQSVGSYNQQIPQLKVGDVDLQVEGMNVKLSSSPDKGEKDRVKKARQAEAARMRYHRLSNEEKRELNLKRTLAQKRKRQREKEMEELESILRETNDIQEDPDITEQLREKRMRAKWAEAARTRYARMTPEERRAHNTRRRMRQMQNAMSAIKACGMATGDPQKDDEAVRLHIKTQNAKKAEAARQRYHRMNDDEKRVYNQRRTEAFRRRRMEEEMLLAMPIGRINGEALDRAQQIVVRNAKRAEAARLRYQRMTPDQRKSYNQKRYTPKRRRNEMDDMISAGQMAVGSSGTITMGTGTPAKKDDMDALSSLERDVVKRTQHAQQILLRQRANQSSGTPRSVTPPPQAYIISNGQQQHQQLVGNQGNNGIGQHQVLHQGHMQQQQIQVSHQDFQQSSQSIPQNIYTSGMIIQNQGQQQQGQQQQQGQSQQILNNPYRT,not soluble
6,MKKEVTEISSYDATNLVFYVNGKRVEEKDVDPKMTLATYLRDKLKLTGTKIGCNEGGCGACTIMISHIENGEIKHFSANSCLMPVCGVFGKAVTTVEGIGSVAKNRLHPVQERLAKAHGSQCGFCTPGFVMAMYALLRNNPNPTISDINLGLQGNLCRCTGYRPILEAFYSFAVDESGTLKVTEENGCGMGENCCKVKKTACGGSDETTPGYTGGERKRKIQLSDMSDCKPYDPTQELIFPPELKLHGYESMSFAYDHHHTKWYQPVSYDDLLSLKRELPHARLISGNSELAIELKFRFIDLPAVINPRQVKVLHEKHLENDGVYMGTGMSLTDMDNYSVQLMKDLPREQTAVLKHVHEMLHWFAGIHVRNVASVAGNIATASPISDLNPIWMASNALVVLDSEARGEKRVHIDEKFFLGYRKTVIQQDEIIKAVIVPLLEENEHFAAYKQAQRREDDIAIVTGAFLVKLDPKTLVVEKIRISYGGMAPTTKLALTTMEKLIGEKWSQTFLDKALGLLSDELKLPAGVPGGMSQYRLSLALSFFFKFFLGVSKKLELTEIKYVDADVKIGQNVPETLYATQLYQEVKANQPAHDPLGRPIKHVSGDKHTTGEAVYCDDINVADCNHIAFVLSPIAHGTLNSIDYTAALEIDGVVGTIDASDVTTGAQMGHHSDTPVFVKETITFHGQPIAAIVATDHEIARKAASLVKLDYSVEKPIVTIKQALEAESFVFKHFVIHSSLNDNEQVIKSDWSKYDRIVEGSIDMGGQEHFYLETQQCIVIPHEDDELEIIISNQCVNDVQIEVAKCLGMAQHKISTKVKRIGGGFGGKESTGAILAVPASLAAKKFGRPMKFKFERFDDMAITGTRHPFTLQYKLAVDENGKFLDLDYTALSNSGHTIDLSMGVMQRAMVHADNVYKFENADITGKMCKTNLASNTAFRGFGGPQGMFGTEIMVKHVAEKFGFNHDEVRVKNFYKEGDCTPFGMHLNQCNVTRTWDECRKNSDYDNRLEEVKKFNDSNKFRKRGIYLTPTRFGIGFGLKQLNQAGALVLVYTDGSVLVSHGGMEMGQGLHTKILQIAARCLEIPIERIHIHDTSTDKVPNASATAASVGSDMNGLAVQDACRQINERLERFKKLDPNGTWDDWVKAAYVDRVSLSASGFGIIHHEPVDFFNGKGAELFGYSVYGTACCEVEIDCLTGDHHLLRTDIVMDVGESLNPAIDIGQIEGAFIQGYGLFTMEEIKIRPDGIRLTRGPGNYKIPSADDAPRHFNVSLLGNSSNKMGIFSSKAIGEPPLFLGSCAFFAIREAVRAYRIQNGNADYFVFHSPATPERIRMACEDFVTSHVPELPEEGTYTPWITSV,not soluble
7,MAHHHHHHMAMKDAVWLGKPVDVTGEDLCSVYTSRIGGTATLFRETADYSVFRCPKCNSMNTVSLLAQIYAPLDVYDRLLYVLTCSTCSTEQSTFCFALRSQNFNPSYKNVSQTNDKGGCEDKRLLFEESADWGDGMDKGWDYDYKSVKSNTATEQRGNRSTVNEAIADDICSTEVPSSLAPPGSQPPIRGMRFPCFTLEVFEEPPKVKPKSAPFNIQLHEAQGKYGEDVVETTVLDEADEPLHEKLLRKYVERIGRVPSQCVRWGPSREPLQLSVISIVAPRCPYCGKKRRYELQLTSPIIYFLTKSNEKKHPLHFGNVLVFTCSGNCNTEAYALEYCFVEGEI,not soluble
8,MQTDIHDEPVNLGFGVQFEPDDLYRLRSQFLPLGKIGGKPSWLNPKNLPKSADLLCNVCEKPLCFLMQVSANGGINDPPHAFHRSLFLFVCRNPSCSRTNDAANLKAFRCQLPRANDYYSFDGPMDPDLDGDVADPRAPADGPGLCRICGCSAAKKCAKCQVARYCSQAHQVIDWPAHKLECAKAATDGSITDEPKNPRNAFCFKEFGVEIDQEYMPANLFDGLSDDEGDEEEEEGNDEDETEEEKKARIREFEKFVKENKGKNADMTKEDLDEATAEQPKDIDFDKFNRLVNLQPDQIIRYKRYGQPLRATGLSELPEVVEPCELCGAPRRFEMQLMPHLLSLIDVDAIGQSIDWASVYVYTCSASCQIADDGYAKEFVAKQDFL,not soluble
9,MGFLPDSWHFYIETLLVALLAYVVMRNRSKRQQEKLSKKLTERQKDELIADWTPEPLVPETPQDHPVLNPKYADGKMTKDVSIDGEKYLNMASTNFLSFIGVKRIEDRAKQTIFKYGVGSCGPRGFYGTVDVHLDLEKELAKFMGCEEAVLYSYGFATVSSAIPAYAKKGDVIFVDEGVNFAIQKGLQASRSRVEYFKHNDMEHLERLLLEQEQRDKKDPKKAKSVRRFIVVEGLYVNYADLCPLPKIIEFKWRFKVRVFIDESWSFGVIGKTGRGVTEHFNVPMEDVDMVMASLENALASTGGFCVGRSYVVGHQRLSGLGYCFSASLPPLLATAASEAISIIDEEPSRVQKVTEMAINGQKKLQDALSGSKFSLQGCPESPMKHIYYNGEDEEKQLDTFVETVFTKNHLLLTRARYLDKDELFKIRPSIRVMFQHDLTEEEIQRAVDAIRVVAHKF,not soluble
10,ANLYWFRADWFDDADTKAAFKEKYGYDLGVPLNWSAYEDIAEFFTGRDMSALGGPKSAYGSMDYGKKDPSLGWRYTDAWMSMAGMGDKGDPNGLPVDEWGIRVDENSRPVGSCVARGGATNDAAAVYAITKSIEWLQKYAPPQAAGMTFSESGPVPAQGEVAQQIFWYTAFTADMVKEGLPVMNEDGTPKWRMAPSPHGAYWSEGTKVGYQDVGSWTLLKSTPDERAKAAWLYAQFVSSKTVDVKKSHVGLTFVRESTIQHQ,not soluble
